PMC4160023 (Nature, 2013)

Target: the molecule itself
Test: negative-stain electron microscopy

B1: hRegIIIα E114Q mutant (natural protein, human, UniProt Q06141 38-175, looked up)
chain: IRCPKGSKAYGSHCYALFLSPKSWTDADLACQKRPSGNLVSVLSGAEGSFVSSLVKSIGNSYSYVWIGLHDPTQGTQPNGEGWEWSSSDVMNYFAWERNPSTISSPGHCASLSRSTAFLRWKDYNCNVRLPYVCKFTD
- binding result: binds
